For the test, the target named is Duffy antigen receptor for chemokines (DARC) (human) (UniProt Q16570). In words: SPR. For orientation: SPR reads the build-up and loss of mass on a sensor chip optically.

The record followed here is article PMC4578157.

By Kd is commonly meant the constant that tells how readily two partners part at equilibrium. A high value points to lower affinity. “LukE (from UniProt O54081 29-314) (natural protein)” showed a Kd of 56.4 nM. That is a double-digit nanomolar value.

With “HlgC (from UniProt Q07227 30-315) (natural protein)”, the Kd was 229 nM. Compared with the last substance, the Kd is about 4.1-fold higher. Substance “HlgA (from UniProt P0A074 30-309) (natural protein)” had a Kd of 29.2 nM.
